Source: paper doi:10.1101/2022.07.28.501929
Like-named read-outs stand apart in the source and are kept apart here.

Key:
[1] = biological target: T1, Human alpha-thrombin (Factor IIa) (Homo sapiens, UniProt P00734;P00734 328-363;364-622); assay: bead fluorescence binding
[2] = biological target: T1, Human alpha-thrombin (Factor IIa); assay: bead fluorescence binding; remark: listed apart in the source

| Binder | Kd [1] | binding result [1] | further results |
| --- | --- | --- | --- |
| SAM24-24 (mixed) DNA 1: ACGTGAGAGCAGAGTCCGTGGTAGGGCAGGTTGGGGTGACTGACATACGACGA DNA 2: CTGCTCTCACGTTCGTCGTATGTC | 30.9 ± 5.67 nM |  |  |
| SAM16-16 (SAM16 with gap = 0) (mixed) DNA 1: ACGTGAGAAGTCCGTGGTAGGGCAGGTTGGGGTGACTTACGACGA DNA 2: TCTCACGTTCGTCGTA | 2010 ± 87.3 nM |  |  |
| SAM16 with gap = 3 (mixed) DNA 1: ACGTGAGAAGTCCGTGGTAGGGCAGGTTGGGGTGACTTACGACGA DNA 2: TCTCACGTTTTTCGTCGTA | 11.6 ± 2.87 nM |  |  |
| SAM16-16 with EcoRI site, EcoRI digested (mixed) DNA 1: AATTCCGAAGTCCGTGGTAGGGCAGGTTGGGGTGACTATCGACGG DNA 2: TCGG DNA 3: AATTCCGTCGAT |  |  | Kd [2]: 56.3 ± 5.48 nM |
| SAM22-22 (mixed) DNA 1: ACGTGAGAGCAAGTCCGTGGTAGGGCAGGTTGGGGTGACTACATACGACGA DNA 2: TGCTCTCACGTTCGTCGTATGT |  | binds |  |
| SAM20-20 (mixed) DNA 1: ACGTGAGAGCAGTCCGTGGTAGGGCAGGTTGGGGTGACTCATACGACGA DNA 2: GCTCTCACGTTCGTCGTATG |  | binds |  |
